Test results taken from patent US20210261671A1 (HARPOON THERAPEUTICS, published 2021).
Numbering of substitutions follows the chain as printed. Values belong to the binder of their own block, whether it stands above or below them.

Columns and labels:
human FLT3 protein [1] = target: T1, human FLT3 protein (human, UniProt P36888 27-541, limits assumed); assay: colorimetric ELISA, signal over control wells lacking FLT3
T1 construct: protein coated in the screening ELISA; also called ELISA FLT3
From the text: (§1) Llamas were immunized with purified FLT3 protein expressed in Expi293 cells. A phage display library for expression of heavy variable antibody domains was constructed from circulating B cells isolated from the immunized llamas (See van der Linden, de Geus, Stok, Bos, van Wassenaar, Verrips, and Frenken. 2000. J Immunol Methods 240:185-195). Phage clones were screened for binding to FLT3 by expressing llama anti-FLT3 proteins in E. coli, preparing periplasmic extracts, and performing colorimetric ELISAs.

human FLT3 protein [2] = target: T1, human FLT3 protein; assay: colorimetric ELISA, periplasmic extract
From the text: as §1

FLT3/control (human FLT3 protein [1]): 4 ratio
ELISA FLT3 (absorbance) (human FLT3 protein [2]): 3.6 absorbance
B1: FLL823 (VHH)
VHH: QVQLQESGGGVVQVGGSLRLSCAASGGTFGYYAVGWFRQAPGKEREFVAAVTWNGAYLYSDPVKGRFTISRDNAKNTVYLQMNSLKSEDTAVYYCGLDRWSAVVESTPSTRGQGTQVTVSS
notes: llama anti-FLT3 variable domain; E. coli periplasmic extract

FLT3/control (human FLT3 protein [1]): 54 ratio
ELISA FLT3 (absorbance) (human FLT3 protein [2]): 4 absorbance
B2: FLL177 (VHH)
VHH: QVQLQESGGGLVQTGGSLRLSCAASGSTFSRNTMGWFRQAPGKERVFVLGISWSGIRSYYLDSAKARFTISRDNAKNTVYLQMNSLRPEDTAVYYCAAQEGSSPGPYKYWGQGTQVTVSS
notes: as for B1

FLT3/control (human FLT3 protein [1]): 17 ratio
ELISA FLT3 (absorbance) (human FLT3 protein [2]): 4 absorbance
B3: FLL822 (VHH)
VHH: QVQLQESGGGSVQAGGSLRLSCTASGRTFTDYTMGWFRQAPGKEREFMLGISSNGYRRYYTGSMKDRFTISRDNVKKTVYLQMNDLKPEDTAVYYCAASEDHGAPRYDYWGQGTQVTVSS
notes: as for B1

FLT3/control (human FLT3 protein [1]): 17 ratio
ELISA FLT3 (absorbance) (human FLT3 protein [2]): 2.1 absorbance
B4: FLL125 (VHH)
VHH: QVQLQESGGGLVQAGGSLRLSCAASGSTFSRNYIDWYRQAPGKQREWVAQITSGGNTHYEPSLKGRFTISRDNAKNTAYLQMNSLKPEDTAVYYCRILDYWGQGTQVTVSS
notes: as for B1

FLT3/control (human FLT3 protein [1]): 5 ratio
ELISA FLT3 (absorbance) (human FLT3 protein [2]): 0.5 absorbance
B5: FLL62 (VHH)
VHH: B4 VHH with F29S
notes: as for B1

FLT3/control (human FLT3 protein [1]): 17 ratio
ELISA FLT3 (absorbance) (human FLT3 protein [2]): 2.1 absorbance
B6: FLL158 (VHH)
VHH: B4 VHH with A14P, S30G
notes: as for B1

FLT3/control (human FLT3 protein [1]): 15 ratio
ELISA FLT3 (absorbance) (human FLT3 protein [2]): 1.9 absorbance
B7: FLL86 (VHH)
VHH: B4 VHH with A14P, G16D, S17P
notes: as for B1

FLT3/control (human FLT3 protein [1]): 9 ratio
ELISA FLT3 (absorbance) (human FLT3 protein [2]): 1.4 absorbance
B8: FLL57 (VHH)
VHH: B4 VHH with R31K
notes: as for B1

FLT3/control (human FLT3 protein [1]): 6 ratio
ELISA FLT3 (absorbance) (human FLT3 protein [2]): 2 absorbance
B9: FLL55 (VHH)
VHH: B4 VHH with G54A
notes: as for B1

FLT3/control (human FLT3 protein [1]): 4 ratio
ELISA FLT3 (absorbance) (human FLT3 protein [2]): 0.6 absorbance
B10: FLL79 (VHH)
VHH: B4 VHH with A23S
notes: as for B1

FLT3/control (human FLT3 protein [1]): 20 ratio
ELISA FLT3 (absorbance) (human FLT3 protein [2]): 3.3 absorbance
B11: FLL21 (VHH)
VHH: B4 VHH with A14P, R19T
notes: as for B1

FLT3/control (human FLT3 protein [1]): 4 ratio
ELISA FLT3 (absorbance) (human FLT3 protein [2]): 1.3 absorbance
B12: FLL84 (VHH)
VHH: QVQLQESGGGLVQAGGSLMVSCAASGGTFSSYATGWFRQVPGKEREFIAGISRSGGRTYYAESVKGRFTISRDNAKNTVYLQMNTLKPDDTAVYYCAAARYFTTSVVYTSGDDYDYWGQGTQVTVSS
notes: as for B1

FLT3/control (human FLT3 protein [1]): 25 ratio
ELISA FLT3 (absorbance) (human FLT3 protein [2]): 4 absorbance
B13: FLL92 (VHH)
VHH: B12 VHH with F29W, F47L, P88S, T104S, D112N
notes: as for B1

FLT3/control (human FLT3 protein [1]): 14 ratio
ELISA FLT3 (absorbance) (human FLT3 protein [2]): 3.3 absorbance
B14: FLL8 (VHH)
VHH: B12 VHH with A14V, S54N, G55S, T104R, S105D
notes: as for B1

FLT3/control (human FLT3 protein [1]): 9 ratio
ELISA FLT3 (absorbance) (human FLT3 protein [2]): 1.9 absorbance
B15: FLL71 (VHH)
VHH: B12 VHH with A14V, S54N, G55S, T104R, S105D, V106A
notes: as for B1

FLT3/control (human FLT3 protein [1]): 37 ratio
ELISA FLT3 (absorbance) (human FLT3 protein [2]): 3.7 absorbance
B16: FLL102 (VHH)
VHH: B12 VHH with F29W, E46K, F47L, T104S, D112N
notes: as for B1

FLT3/control (human FLT3 protein [1]): 26 ratio
ELISA FLT3 (absorbance) (human FLT3 protein [2]): 4 absorbance
B17: FLL122 (VHH)
VHH: B12 VHH with F29W, F47L, T104S, D112N
notes: as for B1

FLT3/control (human FLT3 protein [1]): 12 ratio
ELISA FLT3 (absorbance) (human FLT3 protein [2]): 2.7 absorbance
B18: FLL67 (VHH)
VHH: B12 VHH with A14L, G16D
notes: as for B1

FLT3/control (human FLT3 protein [1]): 5 ratio
ELISA FLT3 (absorbance) (human FLT3 protein [2]): 0.8 absorbance
B19: FLL41 (VHH)
VHH: B12 VHH with A14L, G16D, K43R
notes: as for B1

FLT3/control (human FLT3 protein [1]): 8 ratio
ELISA FLT3 (absorbance) (human FLT3 protein [2]): 4 absorbance
B20: FLL154 (VHH)
VHH: QVQLQESGGGLVQAGGSLRLSCAVSGRTFSGFGTGWFRQAPGKEREFVAAISWSGGRTHYADSVKGRFTISRDNAKNTVYLQMNSLKPEDTAVYYCAGQVARAYDGNWYSRGDYWGQGTQVTVSS
notes: as for B1

FLT3/control (human FLT3 protein [1]): 35 ratio
ELISA FLT3 (absorbance) (human FLT3 protein [2]): 3.8 absorbance
B21: FLL83 (VHH)
VHH: B20 VHH with R57T, K76E, Q82E, Y95I, A101S, G106S, G112D
notes: as for B1

FLT3/control (human FLT3 protein [1]): 6 ratio
ELISA FLT3 (absorbance) (human FLT3 protein [2]): 3.9 absorbance
B22: FLL74 (VHH)
VHH: B20 VHH with A23R, V24F, S54A, A61E, G98V, A101S, N107I, R111G
notes: as for B1

FLT3/control (human FLT3 protein [1]): 28 ratio
ELISA FLT3 (absorbance) (human FLT3 protein [2]): 4 absorbance
B23: FLL168 (VHH)
VHH: QVQLQESGGGSVQAGGSLRLSCAFSGRTFSGFGTGWFRQAPEKEREFVAAISWDGGRTHYADSVKGRFTISRDNAKNTVYLQMDSLKPEDTAIYYCAAQVSRAYDGRWYSAVDYWGRGTQVTVSS
notes: as for B1

FLT3/control (human FLT3 protein [1]): 45 ratio
ELISA FLT3 (absorbance) (human FLT3 protein [2]): 4 absorbance
B24: FLL38 (VHH)
VHH: B20 VHH with I51V, R57T, H59E, Y60I, N84S, E89G, G106S, N107R
notes: as for B1

FLT3/control (human FLT3 protein [1]): 34 ratio
ELISA FLT3 (absorbance) (human FLT3 protein [2]): 3.6 absorbance
B25: FLL112 (VHH)
VHH: B20 VHH with S54A, A61E, S71H, G98A, A101S, N107I, R111G
notes: as for B1

FLT3/control (human FLT3 protein [1]): 47 ratio
ELISA FLT3 (absorbance) (human FLT3 protein [2]): 4 absorbance
B26: FLL143 (VHH)
VHH: B20 VHH with S54V, G98A, R111G
notes: as for B1

FLT3/control (human FLT3 protein [1]): 15 ratio
ELISA FLT3 (absorbance) (human FLT3 protein [2]): 4 absorbance
B27: FLL142 (VHH)
VHH: B20 VHH with S54D, S63F, G98A, G106S, N107K, R111G
notes: as for B1

FLT3/control (human FLT3 protein [1]): 5 ratio
ELISA FLT3 (absorbance) (human FLT3 protein [2]): 4 absorbance
B28: FLL94 (VHH)
VHH: B20 VHH with G42E, S54D, V93I, G106T, N107R
notes: as for B1

FLT3/control (human FLT3 protein [1]): 51 ratio
ELISA FLT3 (absorbance) (human FLT3 protein [2]): 4 absorbance
B29: FLL188 (VHH)
VHH: B20 VHH with R19G, A40P, G42E, S54D, Y80F, G98A, G106S, N107R, R111G
notes: as for B1

FLT3/control (human FLT3 protein [1]): 16 ratio
ELISA FLT3 (absorbance) (human FLT3 protein [2]): 3.8 absorbance
B30: FLL6 (VHH)
VHH: B20 VHH with S54D, K76A, A101S, G106S, N107M, S110G, G112D
notes: as for B1

FLT3/control (human FLT3 protein [1]): 13 ratio
ELISA FLT3 (absorbance) (human FLT3 protein [2]): 3.7 absorbance
B31: FLL99 (VHH)
VHH: B20 VHH with S54D, S63F, G98A, G106S, N107R, R111G
notes: as for B1

FLT3/control (human FLT3 protein [1]): 38 ratio
ELISA FLT3 (absorbance) (human FLT3 protein [2]): 4 absorbance
B32: FLL170 (VHH)
VHH: B20 VHH with R57T, G106S, N107S
notes: as for B1

FLT3/control (human FLT3 protein [1]): 5 ratio
ELISA FLT3 (absorbance) (human FLT3 protein [2]): 0.5 absorbance
B33: FLL76 (VHH)
VHH: QVQLQESGGGLVQAGGSLRLSCAASGGAFSSYVMGWFRQAPGKEREFVAAVISWSGRITDYADSVKGRFSISRDNAKSTVYLQMNNLKPEDTAVYYCAAKTGMYIDLRTSTFDYWGQGTQVTVSS
notes: as for B1

FLT3/control (human FLT3 protein [1]): 12 ratio
ELISA FLT3 (absorbance) (human FLT3 protein [2]): 1.9 absorbance
B34: FLL39 (VHH)
VHH: QVQLQESGGGLVQAGGSLRLSCAASGLTSSTYRMAWFRQAPGKEREFAAGISYSADSGGSTNYADSVKGRFTISRDNAKNTVYLQMSSLKPEDTAVYYCAAGRYSGTYNSPYSSSYVYWGQGTQVTVSS
notes: as for B1

FLT3/control (human FLT3 protein [1]): 37 ratio
ELISA FLT3 (absorbance) (human FLT3 protein [2]): 3.7 absorbance
B35: FLL553 (VHH)
VHH: QVQLQESGGGLVQAGGSLRLSCAVSGRTFSGFGTGWFRQAPGKEREFVAAISWSGGTTHYADSVKGRFTISRDNAKNTVNLVYLQMNSLRPEDTAVYYCAGQVARAYDSNWYSRGDYWGQGTQVTVSS
notes: as for B1

FLT3/control (human FLT3 protein [1]): 21 ratio
ELISA FLT3 (absorbance) (human FLT3 protein [2]): 4 absorbance
B36: FLL40 (VHH)
VHH: B35 VHH with N80S, R90K, E92D, N110S, W118L
notes: as for B1

FLT3/control (human FLT3 protein [1]): 17 ratio
ELISA FLT3 (absorbance) (human FLT3 protein [2]): 3.9 absorbance
B37: FLL53 (VHH)
VHH: B35 VHH with G16D, I51V, W53Q, V79E, N80T, R90K, N110S, S113A
notes: as for B1

FLT3/control (human FLT3 protein [1]): 19 ratio
ELISA FLT3 (absorbance) (human FLT3 protein [2]): 4 absorbance
B38: FLL75 (VHH)
VHH: B35 VHH with S88D
notes: as for B1
